Experimental findings from US20210349104A1 (MESO SCALE TECHNOLOGIES, published 2021) are described below.

To fix the notation:
B1: MERS-CoV S protein (other)
chain: YVDVGPDSVKSACIEVDIQQTFFDKTWPRPIDVSKADGIIYPQGRTYSNITITYQGLFPYQGDHGDMYVYSAGHATGTTPQKLFVANYSQDVKQFANGFVVRIGAAANSTGTVIISPSTSATIRKIYPAFMLGSSVGNFSDGKMGRFFNHTLVLLPDGCGTLLRAFYCILEPRSGNHCPAGNSYTSFATYHTPATDCSDGNYNRNASLNSFKEYFNLRNCTFMYTYNITEDEILEWFGITQTAQGVHLFSSRYVDLYGGNMFQFATLPVYDTIKYYSIIPHSIRSIQSDRKAWAAFYVYKLQPLTFLLDFSVDGYIRRAIDCGFNDLSQLHCSYESFDVESGVYSVSSFEAKPSGSVVEQAEGVECDFSPLLSGTPPQVYNFKRLVFTNCNYNLTKLLSLFSVNDFTCSQISPAAIASNCYSSLILDYFSYPLSMKSDLSVSSAGPISQFNYKQSFSNPTCLILATVPHNLTTITKPLKYSYINKCSRFLSDDRTEVPQLVNANQYSPCVSIVPSTVWEDGDYYRKQLSPLEGGGWLVASGSTVAMTEQLQMGFGITVQYGTDTNSVCPKLEFANDTKIASQLGNCVEYSLYGVSGRGVFQNCTAVGVRQQRFVYDAYQNLVGYYSDDGNYYCLRACVSVPVSVIYDKETKTHATLFGSVACEHISSTMSQYSRSTRSMLKRRDSTYGPLQTPVGCVLGLVNSSLFVEDCKLPLGQSLCALPDTPSTLTPRSVRSVPGEMRLASIAFNHPIQVDQLNSSYFKLSIPTNFSFGVTQEYIQTTIQKVTVDCKQYVCNGFQKCEQLLREYGQFCSKINQALHGANLRQDDSVRNLFASVKSSQSSPIIPGFGGDFNLTLLEPVSISTGSRSARSAIEDLLFDKVTIADPGYMQGYDDCMQQGPASARDLICAQYVAGYKVLPPLMDVNMEAAYTSSLLGSIAGVGWTAGLSSFAAIPFAQSIFYRLNGVGITQQVLSENQKLIANKFNQALGAMQTGFTTTNEAFHKVQDAVNNNAQALSKLASELSNTFGAISASIGDIIQRLDVLEQDAQIDRLINGRLTTLNAFVAQQLVRSESAALSAQLAKDKVNECVKAQSKRSGFCGQGTHIVSFVVNAPNGLYFMHVGYYPSNHIEVVSAYGLCDAANPTNCIAPVNGYFIKTNNTRIVDEWSYTGSSFYAPEPITSLNTKYVAPQVTYQNISTNLPPPLLGNSTGIDFQDELDEFFKNVSTSIPNFGSLTQINTTLLDLTYEMLSLQQVVKALNESYIDLKELGNYTY
notes: also called S protein from MERS-CoV
B2: HCoV-HKU1 S protein (other)
chain: AVIGDFNCTNFAINDLNTTVPRISEYVVDVSYGLGTYYILDRVYLNTTILFTGYFPKSGANFRDLSLKGTTYLSTLWYQKPFLSDFNNGIFSRVKNTKLYVNKTLYSEFSTIVIGSVFINNSYTIVVQPHNGVLEITACQYTMCEYPHTICKSKGSSRNESWHFDKSEPLCLFKKNFTYNVSTDWLYFHFYQERGTFYAYYADSGMPTTFLFSLYLGTLLSHYYVLPLTCNAISSNTDNETLQYWVTPLSKRQYLLKFDNRGVITNAVDCSSSFFSEIQCKTKSLLPNTGVYDLSGFTVKPVATVHRRIPDLPDCDIDKWLNNFNVPSPLNWERKIFSNCNFNLSTLLRLVHTDSFSCNNFDESKIYGSCFKSIVLDKFAIPNSRRSDLQLGSSGFLQSSNYKIDTTSSSCQLYYSLPAINVTINNYNPSSWNRRYGFNNFNLSSHSVVYSRYCFSVNNTFCPCAKPSFASSCKSHKPPSASCPIGTNYRSCESTTVLDHTDWCRCSCLPDPITAYDPRSCSQKKSLVGVGEHCAGFGVDEEKCGVLDGSYNVSCLCSTDAFLGWSYDTCVSNNRCNIFSNFILNGINSGTTCSNDLLQPNTEVFTDVCVDYDLYGITGQGIFKEVSAVYYNSWQNLLYDSNGNIIGFKDFVTNKTYNIFPCYAGRVSAAFHQNASSLALLYRNLKCSYVLNNISLTTQPYFDSYLGCVFNADNLTDYSVSSCALRMGSGFCVDYNSPSSSSSRRKRRSISASYRFVTFEPFNVSFVNDSIESVGGLYEIKIPTNFTIVGQEEFIQTNSPKVTIDCSLFVCSNYAACHDLLSEYGTFCDNINSILDEVNGLLDTTQLHVADTLMQGVTLSSNLNTNLHFDVDNINFKSLVGCLGPHCGSSSRSFFEDLLFDKVKLSDVGFVEAYNNCTGGSEIRDLLCVQSFNGIKVLPPILSESQISGYTTAATVAAMFPPWSAAAGIPFSLNVQYRINGLGVTMDVLNKNQKLIATAFNNALLSIQNGFSATNSALAKIQSVVNSNAQALNSLLQQLFNKFGAISSSLQEILSRLDALEAQVQIDRLINGRLTALNAYVSQQLSDISLVKFGAALAMEKVNECVKSQSPRINFCGNGNHILSLVQNAPYGLLFMHFSYKPISFKTVLVSPGLCISGDVGIAPKQGYFIKHNDHWMFTGSSYYYPEPISDKNVVFMNTCSVNFTKAPLVYLNHSVPKLSDFESELSHWFKNQTSIAPNLTLNLHTINATFLDLYYEMNLIQESIKSLN
notes: also called S protein from HCoV-HKU1
B3: HCoV-OC43 S protein (other)
chain: AVIGDLKCTSDNINDKDTGPPPISTDTVDVTNGLGTYYVLDRVYLNTTLFLNGYYPTSGSTYRNMALKGSVLLSRLWFKPPFLSDFINGIFAKVKNTKVIKDRVMYSEFPAITIGSTFVNTSYSVVVQPRTINSTQDGDNKLQGLLEVSVCQYNMCEYPQTICHPNLGNHRKELWHLDTGVVSCLYKRNFTYDVNADYLYFHFYQEGGTFYAYFTDTGVVTKFLFNVYLGMALSHYYVMPLTCNSKLTLEYWVTPLTSRQYLLAFNQDGIIFNAEDCMSDFMSEIKCKTQSIAPPTGVYELNGYTVQPIADVYRRKPNLPNCNIEAWLNDKSVPSPLNWERKTFSNCNFNMSSLMSFIQADSFTCNNIDAAKIYGMCFSSITIDKFAIPNGRKVDLQLGNLGYLQSFNYRIDTTATSCQLYYNLPAANVSVSRFNPSTWNKRFGFIEDSVFKPRPAGVLTNHDVVYAQHCFKAPKNFCPCKLNGSCVGSGPGKNNGIGTCPAGTNYLTCDNLCTPDPITFTGTYKCPQTKSLVGIGEHCSGLAVKSDYCGGNSCTCRPQAFLGWSADSCLQGDKCNIFANFILHDVNSGLTCSTDLQKANTDIILGVCVNYDLYGILGQGIFVEVNATYYNSWQNLLYDSNGNLYGFRDYIINRTFMIRSCYSGRVSAAFHANSSEPALLFRNIKCNYVFNNSLTRQLQPINYFDSYLGCVVNAYNSTAISVQTCDLTVGSGYCVDYSKNRRSRGAITTGYRFTNFEPFTVNSVNDSLEPVGGLYEIQIPSEFTIGNMVEFIQTSSPKVTIDCAAFVCGDYAACKSQLVEYGSFCDNINAILTEVNELLDTTQLQVANSLMNGVTLSTKLKDGVNFNVDDINFSPVLGCLGSECSKASSRSAIEDLLFDKVKLSDVGFVEAYNNCTGGAEIRDLICVQSYKGIKVLPPLLSENQISGYTLAATSASLFPPWTAAAGVPFYLNVQYRINGLGVTMDVLSQNQKLIANAFNNALYAIQEGFDATNSALVKIQAVVNANAEALNNLLQQLSNRFGAISASLQEILSRLDALEAEAQIDRLINGRLTALNAYVSQQLSDSTLVKFSAAQAMEKVNECVKSQSSRINFCGNGNHIISLVQNAPYGLYFIHFSYVPTKYVTARVSPGLCIAGDRGIAPKSGYFVNVNNTWMYTGSGYYYPEPITENNVVVMSTCAVNYTKAPYVMLNTSIPNLPDFKEELDQWFKNQTSVAPDLSLDYINVTFLDLQVEMNRLQEAIKVLNQSYINLKDIGTYEY
notes: also called S protein from HCoV-OC43

T1 sequence (Q9BYF1 18-740 limits assumed): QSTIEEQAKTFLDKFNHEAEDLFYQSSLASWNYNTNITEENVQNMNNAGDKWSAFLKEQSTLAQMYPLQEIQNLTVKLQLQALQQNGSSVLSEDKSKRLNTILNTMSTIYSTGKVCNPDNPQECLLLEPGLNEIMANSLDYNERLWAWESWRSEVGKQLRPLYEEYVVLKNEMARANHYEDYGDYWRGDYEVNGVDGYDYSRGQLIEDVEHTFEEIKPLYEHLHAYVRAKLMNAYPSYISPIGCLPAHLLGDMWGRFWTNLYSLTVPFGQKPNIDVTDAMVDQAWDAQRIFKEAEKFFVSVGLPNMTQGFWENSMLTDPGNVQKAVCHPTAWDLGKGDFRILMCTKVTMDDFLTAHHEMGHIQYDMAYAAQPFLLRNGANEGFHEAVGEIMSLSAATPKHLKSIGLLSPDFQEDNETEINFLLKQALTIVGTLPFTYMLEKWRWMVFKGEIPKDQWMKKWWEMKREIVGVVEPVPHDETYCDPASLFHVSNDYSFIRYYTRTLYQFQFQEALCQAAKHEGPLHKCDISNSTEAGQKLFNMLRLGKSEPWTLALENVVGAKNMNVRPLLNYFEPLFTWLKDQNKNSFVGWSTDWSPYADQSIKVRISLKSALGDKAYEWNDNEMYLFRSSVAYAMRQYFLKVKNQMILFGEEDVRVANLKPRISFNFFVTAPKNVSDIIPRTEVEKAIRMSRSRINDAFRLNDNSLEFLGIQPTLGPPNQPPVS

The test has as its target T1, ACE2 (angiotensin-converting enzyme 2), labeled (human, UniProt Q9BYF1 18-740).
T1 construct: also called labeled ACE2
Description: labeled ACE2 on immobilized Mixed Panel, ECL.
For B1, the binding result is recorded as “no binding”. In the case of B2, the binding result is given as “no binding”. With B3 the entry was “no binding”.
